Reference: the supplement of paper PMC12764529
± gives the half width of the 95% confidence interval.

Columns and labels:
[1] = folding stability dG unfold from trypsin proteolysis; higher = more stable
Method in brief: (§1)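 Unfolding free energy was derived, per protease or combined, by relating Bayesian-fitted K50 values from sequencing counts to a sequence-predicted unfolded-state K50 and a shared folded-state K50. The underlying digests exposed cysteine-free mini-proteins under 80 residues, in a PA-tagged cDNA display construct, to trypsin and chymotrypsin at 11 threefold-diluted concentrations and to a no-protease condition. A filter kept only designs with AlphaFold2 dimer inter-PAE above 15.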

[2] = folding stability dG unfold from chymotrypsin proteolysis; higher = more stable
Method in brief: as §1

[3] = folding stability dG unfold (combined trypsin and chymotrypsin); higher = more stable
Method in brief: as §1

Sequence | folding stability dG unfold [1] | folding stability dG unfold [2] | folding stability dG unfold [3]
SAGGSAGGSKPRPIDIMFPNPENGRPVMIRIEYTKDKIKAEWYFGNKPQEKKIDDPEDLLEFISAGGSAGGS [r12_299_TrROS] | 0.0886 ± 0.055 kcal/mol | 1.08 ± 0.1 kcal/mol | 0.754 ± 0.096 kcal/mol
SAGGSAGGSKPVLKITVTNEKGEKQTISLDELQAETGLSAEEIAARLAALLPPGAKITIEPVPSAGGSAGGS [r12_399_TrROS_Hall] | 1.81 ± 0.024 kcal/mol | 2.11 ± 0.023 kcal/mol | 1.98 ± 0.048 kcal/mol
SAGGSAGGSKRKIKVDDVEPPPNGFMRVTLEVDDGKPLVPINIPPGQTPSEVKDQVKDLVEELSAGGSAGGS [r12_798_TrROS] | 3.86 ± 0.31 kcal/mol | 3.74 ± 0.41 kcal/mol | 3.85 ± 0.49 kcal/mol
SAGGSAGGSKTIEIVVPPNTTPEEIAKKLKELFPDAKITSVEVYVDKKTKKIVYVKVKIEVKPSAGGSAGGS [r12_822_TrROS_Hall] | 2.68 ± 0.1 kcal/mol | 3.82 ± 0.057 kcal/mol | 3.46 ± 0.087 kcal/mol
SAGGSAGGSKTIKIEIEKMSEEELKNLTAEEIAKLLGVKEVKVTKEKIEITLTEEELKKLEKKSAGGSAGGS [r12_178_TrROS_Hall] | 0.257 ± 0.099 kcal/mol | 1.24 ± 0.022 kcal/mol | 0.856 ± 0.14 kcal/mol
SAGGSAGGSKTILIVLPPGEELTPEQLKALAAALPPDATLTILVYDPETKELHVFTFKLPEGLSAGGSAGGS [r12_913_TrROS_Hall] | 2.99 ± 0.069 kcal/mol | 4.14 ± 0.054 kcal/mol | 3.87 ± 0.081 kcal/mol
SAGGSAGGSKTLIIKIKVEGLSEEEIAEELAKKLQEETGLKIKSVKIEKKDGYLYIEVEVEEPSAGGSAGGS [r12_781_TrROS_Hall] | 3.86 ± 0.4 kcal/mol | 3.96 ± 0.17 kcal/mol | 4.15 ± 0.21 kcal/mol
SAGGSAGGSKTVYRITIYNEKTGKKLVIEIEESMSEEEKEQKIKDLLKKLLPPGAKIKIEKVPSAGGSAGGS [r20_213_TrROS_Hall] | 3.34 ± 0.44 kcal/mol | 4.44 ± 0.2 kcal/mol | 4.08 ± 0.25 kcal/mol
SAGGSAGGSKTYKIKVEKLEDGTYKLKIIDKKTKKEYEITISKKNLPKIKEIKITKNGKIEIKSAGGSAGGS [r20_11_TrROS_Hall] | 1.73 ± 0.026 kcal/mol | 3.08 ± 0.071 kcal/mol | 2.75 ± 0.12 kcal/mol
SAGGSAGGSKVKIETVENEDGVKFERVVDEETGKTVFLAKNKKTGKLYLFVITPDGEIKVFELSAGGSAGGS [r12_474_TrROS_Hall] | 1.42 ± 0.033 kcal/mol | 2.6 ± 0.049 kcal/mol | 2.27 ± 0.089 kcal/mol
SAGGSAGGSKYYRVRFKEEIEITLENGEKLKIKKGDVIVVPSKEDLDRLKALFPNLEVEVEPVSAGGSAGGS [r12_987_TrROS_Hall] | 3.16 ± 0.1 kcal/mol | 3.91 ± 0.043 kcal/mol | 3.7 ± 0.099 kcal/mol
SAGGSAGGSLKPGQPYIMIRIKIQHPNGNTRTFNIMVPWNDIPQILDFLESHGFKIKDIEIFPSAGGSAGGS [r12_986_TrROS] | 3.94 ± 0.21 kcal/mol | 5.42 ± 0.17 kcal/mol | 5.09 ± 0.2 kcal/mol
SAGGSAGGSLLEDIKKALEIIKPPPIPVKVKVKIEYDPEKGELKVEVEFFGIKLKVEGEFKIESAGGSAGGS [r20_230_TrMRF] | 2.07 ± 0.22 kcal/mol | 3.4 ± 0.16 kcal/mol | 3.04 ± 0.26 kcal/mol
SAGGSAGGSLRLRVTFTVTVTFLDGNRLRPAKVEITVEIELEPIPPELLRPRPLPGDKLEYDLSAGGSAGGS [r12_1031_TrMRF] | 2.72 ± 0.17 kcal/mol | 3.29 ± 0.045 kcal/mol | 3.16 ± 0.25 kcal/mol
SAGGSAGGSMEVDIEVETLETEVSFLPGDLIKVKKLVKITLPNGEVLEEETEEIIPKSEIGKLSAGGSAGGS [r12_1028_JUSTAS] | 0.808 ± 0.078 kcal/mol | -0.00695 ± 0.12 kcal/mol | 0.419 ± 0.24 kcal/mol
SAGGSAGGSMEVNLKVTVTYPDGTVVELEIPKVSTEDGKSVEDVAKEIEALPDVKEVEVEIVESAGGSAGGS [r12_199_JUSTAS] | 0.847 ± 0.13 kcal/mol | 2.03 ± 0.1 kcal/mol | 1.55 ± 0.27 kcal/mol
SAGGSAGGSMEVTYDEETGELTVRIEVDGKTLTLKFKSIEDLKAALEKLGIDVDDVKIVEIEPSAGGSAGGS [r12_834_TrROS_Hall] | 4.18 ± 0.3 kcal/mol | 4.75 ± 0.089 kcal/mol | 4.67 ± 0.14 kcal/mol
SAGGSAGGSMIDDIVEKLKIPPGTRIVFNDGEVKYFDNREDIKEWAKNGYPAEKLKNIVAFPESAGGSAGGS [r12_430_TrMRF] | -0.276 ± 0.15 kcal/mol | 0.491 ± 0.1 kcal/mol | 0.251 ± 0.12 kcal/mol

Sequence | folding stability dG unfold [1] | folding stability dG unfold [2] | folding stability dG unfold [3]
SAGGSAGGSMIEVVKFPNGITLEYFPETNTYRAFNPSTNTTTTFPPGVSFEEAVEAVKKGNLVSAGGSAGGS [r12_832_JUSTAS] | 4.1 ± 0.091 kcal/mol | 3.82 ± 0.017 kcal/mol | 3.88 ± 0.041 kcal/mol
SAGGSAGGSMITLTLPDEEALRAYVEQLVADAGTEITEVTVTPLAPDTVEAEVSIDPTDPVGLSAGGSAGGS [r12_647_JUSTAS] | 1.09 ± 0.022 kcal/mol | 0.426 ± 0.065 kcal/mol | 0.858 ± 0.098 kcal/mol
SAGGSAGGSMKITINKWDPDNGNIMVTIQMPGQPVEIMIPWNNVDKLLEKLPFPGMKIDEIYPSAGGSAGGS [r12_23_TrROS] | 1.11 ± 0.1 kcal/mol | 0.718 ± 0.23 kcal/mol | 1.14 ± 0.23 kcal/mol
SAGGSAGGSMKITVEKDENGNYRVTVTLTVNGKEIKLTVTVPKNTTPEEVKKKAEELAKELLKSAGGSAGGS [r12_69_TrROS_Hall] | 4.39 ± 0.55 kcal/mol | 5.13 ± 0.44 kcal/mol | > 6 kcal/mol
SAGGSAGGSMKKIKIEVYNKDGSKTELPLSEILKLYDFDAEEIKKFLEKLFPKDVKFKIEIEGSAGGSAGGS [r12_399_TrMRF] | 1.33 ± 0.061 kcal/mol | 2.53 ± 0.05 kcal/mol | 2.31 ± 0.17 kcal/mol
SAGGSAGGSMKLPPELKGKKIRIRVRNKNGETVEAEATVLEDGTIEIKIEGLSEEEITEIEIESAGGSAGGS [r12_477_TrROS_Hall] | 2.36 ± 0.038 kcal/mol | 2.21 ± 0.035 kcal/mol | 2.3 ± 0.076 kcal/mol
SAGGSAGGSMKLVTVKMKRPNGPVELTPVLPVDPSETLEEVKERVLELYPGAEITEITVTPDESAGGSAGGS [r12_738_JUSTAS] | -0.358 ± 0.11 kcal/mol | 0.708 ± 0.15 kcal/mol | 0.457 ± 0.15 kcal/mol
SAGGSAGGSMKTITVPPEVLAALPLEEIVERNTSPDEEVEVEFVEEPGPVTVIIDTKKKPEHHSAGGSAGGS [r12_716_JUSTAS] | -0.95 ± 0.26 kcal/mol | 0.551 ± 0.015 kcal/mol | 0.252 ± 0.092 kcal/mol
SAGGSAGGSMKVEIKFPDGSVKTIPLSPEEPDVPPEALVKELGADNVTITYYTPDGVPINLGISAGGSAGGS [r12_411_JUSTAS] | 0.297 ± 0.058 kcal/mol | 0.916 ± 0.03 kcal/mol | 0.706 ± 0.053 kcal/mol
SAGGSAGGSMKVVKVELTLTGPGGEVTYLEEEIEVPEDELGEIEVSLPDENLSYEVTVEVIEESAGGSAGGS [r12_354_JUSTAS] | 0.444 ± 0.12 kcal/mol | 1.41 ± 0.071 kcal/mol | 1.12 ± 0.18 kcal/mol
SAGGSAGGSMLEEKIKQVPKSEKATITIKVKNENGKWKVVTVEVTYIEGKNEYEVKITITPEPGSAGGSAGG [r6_545_JUSTAS] | 1.73 ± 0.2 kcal/mol | 3.04 ± 0.18 kcal/mol | 2.29 ± 0.3 kcal/mol
SAGGSAGGSMLVLHLPNGKEIPIPPGEFSEDTGVEDIAARIPPEVRRLRIYNEDGTEVEVPIDSAGGSAGGS [r20_161_TrMRF] | 0.00521 ± 0.4 kcal/mol | 0.479 ± 0.39 kcal/mol | 0.32 ± 0.18 kcal/mol
SAGGSAGGSMPFKIDVEVERHPEDNMYQVEITFPGNREIPIMVDDPSDPEKAKNIAKEFAKQLSAGGSAGGS [r12_1012_TrROS] | 0.13 ± 0.082 kcal/mol | -0.648 ± 0.7 kcal/mol | -0.0883 ± 0.13 kcal/mol
SAGGSAGGSMPTLRVKIEVTNPDGEKLELTITVPRDMTLEELKALAEELAKAGYEVRIVEVEPSAGGSAGGS [r12_804_TrROS_Hall] | 3.61 ± 0.15 kcal/mol | 2.83 ± 0.069 kcal/mol | 3.19 ± 0.17 kcal/mol
SAGGSAGGSMPVKRELIITVTEPSSGTTRTLVVEVETEEEAEAVVAAVAAVPDRTVTEVRRLASAGGSAGGS [r12_152_JUSTAS] | 0.109 ± 0.083 kcal/mol | 1.26 ± 0.022 kcal/mol | 0.926 ± 0.057 kcal/mol
SAGGSAGGSMPVKVITTISRETVPLPNGDPGARYTVTTTVTTDSTVVSTTTTTFSSEAELAAASAGGSAGGS [r12_461_JUSTAS] | 1.08 ± 0.035 kcal/mol | 0.854 ± 0.12 kcal/mol | 0.894 ± 0.084 kcal/mol
SAGGSAGGSMRIKTIKVIPQDDGMYSINITFPGVEREIPIPPQMPPDQITEIEIPIYFDGEPPSAGGSAGGS [r12_673_TrROS] | -0.257 ± 0.16 kcal/mol | 0.436 ± 0.12 kcal/mol | 0.212 ± 0.097 kcal/mol
